Measurements: the supplement of paper PMC11316812
± gives the standard deviation of the averaged measurements.

Experiments:
MCF7 = assay: percentage of EdU-negative (G0-arrested) nuclei per well, 72 h; higher = more G0 arrest; conditions: reference: sequence is the full UniProt precursor, the tested protein was the secreted form or ectodomain
hTERT-HMEC = assay: as above; conditions: reference: sequence is the full UniProt precursor, the tested protein was the secreted form or ectodomain
[1] = protein concentration 0.0225 µM
[2] = protein concentration 0.03125 µM
[3] = protein concentration 0.3125 µM
[4] = protein concentration 0.01125 µM
[5] = protein concentration 0.1125 µM
[6] = protein concentration 0.03123 µM
[7] = protein concentration 0.3123 µM
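Further: secreted proteins added to cultured cells, EdU pulse at the end, nuclei found by Hoechst imaging, EdU status from nuclear versus surrounding ring intensity ratio, PBS as neutral control.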

| Sequence | percentage of EdU-negative (MCF7; [1]) [%] | percentage of EdU-negative (MCF7; protein concentration 0.225 µM) [%] | percentage of EdU-negative (hTERT-HMEC; [1]) [%] | percentage of EdU-negative (hTERT-HMEC; protein concentration 0.225 µM) [%] | other results |
| --- | --- | --- | --- | --- | --- |
| MKVTGIFLLSALALLSLSGNTGADSLGREAKCYNELNGCTKIYDPVCGTDGNTYPNECVLCFENRKRQTSILIQKSGPC | 24 ± 0.32 | 25.6 ± 0.77 | 5.21 ± 1.1 | 4.61 ± 0.16 | – |
| MMWPMHTPLLLLTALMVAVAGSASAQSRTLAGGIHATDLNDKSVQCALDFAISEYNKVINKDEYYSRPLQVMAAYQQIVGGVNYYFNVKFGRTTCTKSQPNLDNCPFNDQPKLKEEEFCSFQINEVPWEDKISILNYKCRKV | 25.28 ± 0.24 | 25.3 ± 2 | 4.35 ± 0.28 | 6.17 ± 0.2 | – |
| MAAPVPWACCAVLAAAAAVVYAQRHSPQEAPHVQYERLGSDVTLPCGTANWDAAVTWRVNGTDLAPDLLNGSQLVLHGLELGHSGLYACFHRDSWHLRHQVLLHVGLPPREPVLSCRSNTYPKGFYCSWHLPTPTYIPNTFNVTVLHGSKIMVCEKDPALKNRCHIRYMHLFSTIKYKVSISVSNALGHNATAITFDEFTIVKPDPPENVVARPVPSNPRRLEVTWQTPSTWPDPESFPLKFFLRYRPLILDQWQHVELSDGTAHTITDAYAGKEYIIQVAAKDNEIGTWSDWSVAAHATPWTEEPRHLTTEAQAAETTTSTTSSLAPPPTTKICDPGELGSGGGPSAPFLVSVPITLALAAAAATASSLLI | 25 ± 1.9 | 27.1 ± 2.6 | 5 ± 0.54 | 6.52 ± 0.21 | – |
| MFCPLKLILLPVLLDYSLGLNDLNVSPPELTVHVGDSALMGCVFQSTEDKCIFKIDWTLSPGEHAKDEYVLYYYSNLSVPIGRFQNRVHLMGDILCNDGSLLLQDVQEADQGTYICEIRLKGESQVFKKAVVLHVLPEEPKELMVHVGGLIQMGCVFQSTEVKHVTKVEWIFSGRRAKEEIVFRYYHKLRMSVEYSQSWGHFQNRVNLVGDIFRNDGSIMLQGVRESDGGNYTCSIHLGNLVFKKTIVLHVSPEEPRTLVTPAALRPLVLGGNQLVIIVGIVCATILLLPVLILIVKKTCGNKSSVNSTVLVKNTKKTNPEIKEKPCHFERCEGEKHIYSPIIVREVIEEEEPSEKSEATYMTMHPVWPSLRSDRNNSLEKKSGGGMPKTQQAF [Q86YT9] | 23.21 ± 0.041 | 24.8 ± 2.1 | 4.64 ± 0.38 | 5.35 ± 1.2 | – |
| MWLLPALLLLCLSGCLSLKGPGSVTGTAGDSLTVWCQYESMYKGYNKYWCRGQYDTSCESIVETKGEEKVERNGRVSIRDHPEALAFTVTMQNLNEDDAGSYWCKIQTVWVLDSWSRDPSDLVRVYVSPAITTPRRTTHPATPPIFLVVNPGRNLSTGEVLTQNSGFRLSSPHFLLVVLLKLPLLLSMLGAVFWVNRPQWAPPGR [Q496F6] | 23.3 ± 1.9 | 26.6 ± 0.81 | 5.54 ± 0.7 | 5.97 ± 1.6 | – |
| MANRGPAYGLSREVQQKIEKQYDADLEQILIQWITTQCRKDVGRPQPGRENFQNWLKDGTVLCELINALYPEGQAPVKKIQASTMAFKQMEQISQFLQAAERYGINTTDIFQTVDLWEGKNMACVQRTLMNLGGLAVARDDGLFSGDPNWFPKKSKENPRNFSDNQLQEGKNVIGLQMGTNRGASQAGMTGYGMPRQIL | – | – | – | – | percentage of EdU-negative (MCF7; [2]): 25.9 ± 1.3%; percentage of EdU-negative (MCF7; [3]): 25.2 ± 2.8%; percentage of EdU-negative (hTERT-HMEC; [2]): 6.1 ± 1.2%; percentage of EdU-negative (hTERT-HMEC; [3]): 5.189 ± 0.039% |
| MIFLTALPLFWIMISASRGGHWGAWMPSSISAFEGTCVSIPCRFDFPDELRPAVVHGVWYFNSPYPKNYPPVVFKSRTQVVHESFQGRSRLLGDLGLRNCTLLLSNVSPELGGKYYFRGDLGGYNQYTFSEHSVLDIVNTPNIVVPPEVVAGTEVEVSCMVPDNCPELRPELSWLGHEGLGEPAVLGRLREDEGTWVQVSLLHFVPTREANGHRLGCQASFPNTTLQFEGYASMDVKYPPVIVEMNSSVEAIEGSHVSLLCGADSNPPPLLTWMRDGTVLREAVAESLLLELEEVTPAEDGVYACLAENAYGQDNRTVGLSVMYAPWKPTVNGTMVAVEGETVSILCSTQSNPDPILTIFKEKQILSTVIYESELQLELPAVSPEDDGEYWCVAENQYGQRATAFNLSVEFAPVLLLESHCAAARDTVQCLCVVKSNPEPSVAFELPSRNVTVNESEREFVYSERSGLVLTSILTLRGQAQAPPRVICTARNLYGAKSLELPFQGAHRLMWAKIGPVGAVVAFAILIAIVCYITQTRRKKNVTESPSFSAGDNPPVLFSSDFRISGAPEKYESERRLGSERRLLGLRGEPPELDLSYSHSDLGKRPTKDSYTLTEELAEYAEIRVK | – | – | – | – | percentage of EdU-negative (MCF7; [4]): 28.5 ± 0.33%; percentage of EdU-negative (MCF7; [5]): 28.73 ± 0.11%; percentage of EdU-negative (hTERT-HMEC; [4]): 5.66 ± 0.36%; percentage of EdU-negative (hTERT-HMEC; [5]): 6.55 ± 0.84% |
| MWVPVVFLTLSVTWIGAAPLILSRIVGGWECEKHSQPWQVLVASRGRAVCGGVLVHPQWVLTAAHCIRNKSVILLGRHSLFHPEDTGQVFQVSHSFPHPLYDMSLLKNRFLRPGDDSSHDLMLLRLSEPAELTDAVKVMDLPTQEPALGTTCYASGWGSIEPEEFLTPKKLQCVDLHVISNDVCAQVHPQKVTKFMLCAGRWTGGKSTCSGDSGGPLVCNGVLQGITSWGSEPCALPERPSLYTKVVHYRKWIKDTIVANP | 26.3 ± 1.2 | 25 ± 2 | 4.97 ± 0.14 | 5.29 ± 0.6 | percentage of EdU-negative (MCF7; [6]): 27.3 ± 0.96%; percentage of EdU-negative (MCF7; [7]): 26.3 ± 0.32%; percentage of EdU-negative (hTERT-HMEC; [6]): 4.99 ± 0.4%; percentage of EdU-negative (hTERT-HMEC; [7]): 6.47 ± 0.73% |
| MARAGPAWLLLAIWVVLPSWLSSAKVSSLIERISDPKDLKKLLRTRNNVLVLYSKSEVAAENHLRLLSTVAQAVKGQGTICWVDCGDAESRKLCKKMKVDLSPKDKKVELFHYQDGAFHTEYNRAVTFKSIVAFLKDPKGPPLWEEDPGAKDVVHLDSEKDFRRLLKKEEKPLLIMFYAPWCSMCKRMMPHFQKAATQLRGHAVLAGMNVYSSEFENIKEEYSVRGFPTICYFEKGRFLFQYDNYGSTAEDIVEWLKNPQPPQPQVPETPWADEGGSVYHLTDEDFDQFVKEHSSVLVMFHAPWCGHCKKMKPEFEKAAEALHGEADSSGVLAAVDATVNKALAERFHISEFPTLKYFKNGEKYAVPVLRTKKKFLEWMQNPEAPPPPEPTWEEQQTSVLHLVGDNFRETLKKKKHTLVMFYAPWCPHCKKVIPHFTATADAFKDDRKIACAAVDCVKDKNQDLCQQEAVKGYPTFHYYHYGKFAEKYDSDRTELGFTNYIRALREGDHERLGKKKEEL | – | – | – | – | percentage of EdU-negative (MCF7; protein concentration 0.019 µM): 22.8 ± 0.61%; percentage of EdU-negative (MCF7; protein concentration 0.19 µM): 22.5 ± 0.95%; percentage of EdU-negative (hTERT-HMEC; protein concentration 0.019 µM): 4.5 ± 0.56%; percentage of EdU-negative (hTERT-HMEC; protein concentration 0.19 µM): 6.73 ± 0.2% |
